The values below are quoted from earlier work in PMC9315744.

Assay in all cases: MST
Series [1] has as its target MHV spike glycoprotein ECD (Murine hepatitis virus) (UniProt P11224).
Series [2] concerns the target Nsp8 (SARS-CoV-2) (UniProt P0DTD1).
Series [3] deals with Nsp7/Nsp8 complex (SARS-CoV-2) (UniProt P0DTD1).

Sequence of MHV spike glycoprotein ECD (Murine hepatitis virus) (P11224 15-1231): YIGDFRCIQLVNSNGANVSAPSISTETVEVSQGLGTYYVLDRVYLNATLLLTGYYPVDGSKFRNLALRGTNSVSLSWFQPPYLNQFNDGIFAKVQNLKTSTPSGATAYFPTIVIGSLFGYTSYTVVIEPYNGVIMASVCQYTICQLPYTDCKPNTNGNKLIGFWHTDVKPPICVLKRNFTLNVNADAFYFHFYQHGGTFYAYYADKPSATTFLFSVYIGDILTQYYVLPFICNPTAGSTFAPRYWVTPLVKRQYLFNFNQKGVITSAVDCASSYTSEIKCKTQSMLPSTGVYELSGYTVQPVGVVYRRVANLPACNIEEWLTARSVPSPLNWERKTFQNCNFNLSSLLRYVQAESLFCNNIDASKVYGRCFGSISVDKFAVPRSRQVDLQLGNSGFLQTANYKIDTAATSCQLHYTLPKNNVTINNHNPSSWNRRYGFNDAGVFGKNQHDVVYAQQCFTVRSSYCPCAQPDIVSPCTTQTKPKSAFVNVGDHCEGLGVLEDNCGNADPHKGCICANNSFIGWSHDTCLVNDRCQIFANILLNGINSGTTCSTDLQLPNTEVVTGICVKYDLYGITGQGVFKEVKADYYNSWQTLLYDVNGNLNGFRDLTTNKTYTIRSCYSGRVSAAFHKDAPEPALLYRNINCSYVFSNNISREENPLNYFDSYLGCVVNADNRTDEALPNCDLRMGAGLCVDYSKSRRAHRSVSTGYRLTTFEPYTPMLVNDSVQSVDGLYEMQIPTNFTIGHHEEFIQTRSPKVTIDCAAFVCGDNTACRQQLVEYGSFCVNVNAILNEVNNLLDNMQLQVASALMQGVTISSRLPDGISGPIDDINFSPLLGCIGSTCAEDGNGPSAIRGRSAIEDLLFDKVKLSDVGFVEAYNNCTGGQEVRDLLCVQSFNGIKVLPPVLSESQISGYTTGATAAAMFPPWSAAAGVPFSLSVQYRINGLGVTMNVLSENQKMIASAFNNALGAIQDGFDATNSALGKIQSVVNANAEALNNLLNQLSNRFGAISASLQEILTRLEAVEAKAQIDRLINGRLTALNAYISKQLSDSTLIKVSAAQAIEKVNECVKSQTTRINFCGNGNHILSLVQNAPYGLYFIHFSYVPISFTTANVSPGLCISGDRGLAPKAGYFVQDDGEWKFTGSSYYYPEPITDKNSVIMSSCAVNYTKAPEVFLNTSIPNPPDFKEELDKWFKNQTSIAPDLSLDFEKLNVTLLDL
Sequence of CEACAM1a (P31809 35-428): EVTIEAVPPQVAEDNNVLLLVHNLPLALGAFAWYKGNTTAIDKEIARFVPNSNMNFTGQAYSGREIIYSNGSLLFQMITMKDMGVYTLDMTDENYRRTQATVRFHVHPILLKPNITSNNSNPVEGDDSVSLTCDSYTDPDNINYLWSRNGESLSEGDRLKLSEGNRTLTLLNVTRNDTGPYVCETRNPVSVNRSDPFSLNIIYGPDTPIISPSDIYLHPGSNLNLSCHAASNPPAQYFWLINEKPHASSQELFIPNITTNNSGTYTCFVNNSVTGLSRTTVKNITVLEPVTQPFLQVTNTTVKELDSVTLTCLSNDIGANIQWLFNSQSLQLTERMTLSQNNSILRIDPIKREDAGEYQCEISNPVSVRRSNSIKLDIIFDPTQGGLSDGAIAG

Consider CEACAM1a (from UniProt P31809), for which, in series [1], the Kd was 0.0485 µM.
On to Nsp15 (from UniProt P0DTD1), for which the Kd in series [2] is 16.3 µM; in series [3], 6.48 µM.

What is called Kd is the concentration at which binding is half-saturated.
